In paper PMC3507621:
Where a chain is given by its changes, count along the chain named. Names and notes keep the numbering of the source. Each block holds one binder with its values, some of them ahead of it.

Key:
[1] = molecular target: T1, inter-α-trypsin inhibitor (IαI), P19827;P19823; experiment: ELISA; settings: chain shown with the change, pH 7.4, PBS with Ca2+ and Mg2+, read off a plot
T1 chain 1: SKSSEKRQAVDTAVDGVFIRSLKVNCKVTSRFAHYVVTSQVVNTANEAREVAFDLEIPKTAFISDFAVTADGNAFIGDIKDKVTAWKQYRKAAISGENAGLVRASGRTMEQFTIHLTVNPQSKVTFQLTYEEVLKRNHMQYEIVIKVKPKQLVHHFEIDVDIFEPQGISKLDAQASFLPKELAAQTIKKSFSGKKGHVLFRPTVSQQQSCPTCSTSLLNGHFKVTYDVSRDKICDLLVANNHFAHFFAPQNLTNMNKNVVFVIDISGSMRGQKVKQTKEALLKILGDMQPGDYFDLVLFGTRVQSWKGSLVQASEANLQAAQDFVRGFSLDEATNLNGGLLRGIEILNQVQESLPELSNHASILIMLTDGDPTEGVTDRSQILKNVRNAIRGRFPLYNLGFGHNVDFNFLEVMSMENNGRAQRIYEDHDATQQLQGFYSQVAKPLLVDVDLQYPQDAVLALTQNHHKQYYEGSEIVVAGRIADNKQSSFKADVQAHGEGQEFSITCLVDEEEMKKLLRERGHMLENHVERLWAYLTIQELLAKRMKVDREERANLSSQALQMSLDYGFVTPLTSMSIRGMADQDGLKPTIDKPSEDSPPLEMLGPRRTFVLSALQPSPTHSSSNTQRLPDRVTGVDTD
T1 chain 2: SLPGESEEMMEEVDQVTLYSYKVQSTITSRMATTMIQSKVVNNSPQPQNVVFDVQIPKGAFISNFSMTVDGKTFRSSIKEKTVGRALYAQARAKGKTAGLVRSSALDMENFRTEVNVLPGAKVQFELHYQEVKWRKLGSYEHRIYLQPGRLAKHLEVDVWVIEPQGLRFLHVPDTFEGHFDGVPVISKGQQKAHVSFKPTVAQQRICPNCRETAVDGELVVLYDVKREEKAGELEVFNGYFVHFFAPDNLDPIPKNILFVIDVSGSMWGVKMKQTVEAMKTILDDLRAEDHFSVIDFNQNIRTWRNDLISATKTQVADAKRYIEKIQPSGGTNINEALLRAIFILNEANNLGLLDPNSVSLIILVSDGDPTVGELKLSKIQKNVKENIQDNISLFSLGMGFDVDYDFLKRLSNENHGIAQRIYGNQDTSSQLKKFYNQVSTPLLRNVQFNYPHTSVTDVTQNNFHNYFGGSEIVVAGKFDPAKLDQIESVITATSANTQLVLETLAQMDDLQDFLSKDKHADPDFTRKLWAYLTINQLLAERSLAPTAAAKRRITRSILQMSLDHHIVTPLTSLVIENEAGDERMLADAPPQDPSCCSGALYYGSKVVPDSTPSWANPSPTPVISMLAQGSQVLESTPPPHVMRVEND
T1 chain 3: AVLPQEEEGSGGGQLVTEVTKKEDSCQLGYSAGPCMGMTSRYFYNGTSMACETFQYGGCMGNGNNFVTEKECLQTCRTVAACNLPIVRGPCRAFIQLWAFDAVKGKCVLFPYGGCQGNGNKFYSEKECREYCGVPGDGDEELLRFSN

[2] = molecular target: T1, inter-α-trypsin inhibitor (IαI), …; experiment: competition ELISA (bPTX3 detected with HRP-conjugated streptavidin); settings: chain shown with the change, wells coated with IαI, read off a plot
[3] = IαI 100 nM (est. from x axis), parent: est. 2.6
[4] = IαI about 1.7 nM (est. from x axis), parent: est. 1.0
[5] = IαI about 6 nM (est. from x axis), parent: est. 2.2
[6] = IαI about 46 nM (est. from x axis), parent: est. 2.7
[7] = IαI about 13 nM (est. from x axis), parent: est. 2.5

response [1, 3]: 2.6 O.D. (450nm)
response [1, 4]: 0.45 O.D. (450nm)
response [1, 5]: 1.3 O.D. (450nm)
response [1, 6]: 2.5 O.D. (450nm)
other: bPTX3 bound to IαI (% of bPTX3 binding in the absence of competitors) ([2]; competitor about 0.24 nM (est. from x axis), parent: est. 99): 99%
other: bPTX3 bound to IαI (% of bPTX3 binding in the absence of competitors) ([2]; competitor about 2.5 nM (est. from x axis), parent: est. 98): 96%
other: bPTX3 bound to IαI (% of bPTX3 binding in the absence of competitors) ([2]; competitor about 24 nM (est. from x axis), parent: est. 80): 82%
other: bPTX3 bound to IαI (% of bPTX3 binding in the absence of competitors) ([2]; competitor about 240 nM (est. from x axis), parent: est. 38): 59%
other: bPTX3 bound to IαI (% of bPTX3 binding in the absence of competitors) ([2]; competitor about 2400 nM (est. from x axis), parent: est. 11): 30%
B1: wild type recombinant N-terminal region of PTX3 (N_PTX3), P26022 C47S; C49S; C103S (protein)
chain: ENSDDYDLMYVNLDNEIDNGLHPTEDPTPSASGQEHSEWDKLFIMLENSQMRERMLLQATDDVLRGELQRLREELGRLAESLARPSAPGAPAEARLTSALDELLQATRDAGRRLARMEGAEAQRPEEAGRALAAVLEELRQTRADLHAVQGWATG

response [1, 3]: 2.6 O.D. (450nm)
response [1, 4]: 0.28 O.D. (450nm)
response [1, 5]: 1.1 O.D. (450nm)
response [1, 7]: 1.7 O.D. (450nm)
response [1, 6]: 2.5 O.D. (450nm)
B2: wild type recombinant N-terminal region of PTX3 (N_PTX3), P26022 C103S (protein)
chain: B1 chain with S30C, S32C

response [1, 3]: 2.6 O.D. (450nm)
response [1, 4]: 0.24 O.D. (450nm)
response [1, 5]: 0.86 O.D. (450nm)
response [1, 7]: 1.4 O.D. (450nm)
response [1, 6]: 2.4 O.D. (450nm)
B3: wild type recombinant N-terminal region of PTX3 (N_PTX3), P26022 C47S; C49S (protein)
chain: B1 chain with S86C
